Experimental data taken from the supplement of paper PMC10567573.

B1: NP_015628.1 (parent)
chain: EQRNSRWNTVLRAVKAKTHHLEP
B2: APBB1IP (parent)
chain: FNYSVGFKDLNESLNALEDQDLDA

Variants of: B1
Experiment: protein stability index of a GFP-peptide fusion (GPS, HEK-293T) (PSI 1-6); higher = more stable
Conditions: c terminus: native

**Q.** Which protein stability index does the source give for EQRNSRWNTVLRAVKAKVHHLEP [T18V] here?
**A.** 3.12

**Q.** Which protein stability index does the source give for EQRNSRWNTVLRAVKAKWHHLEP [T18W] here?
**A.** 3.57

**Q.** For EQRNSRWNTVLRAVKAKYHHLEP [T18Y], which protein stability index is on record?
**A.** 2.84

**Q.** For EQRNSRWNTVLRAVKAKTAHLEP [H19A], which protein stability index is on record?
**A.** 3.34

**Q.** For EQRNSRWNTVLRAVKAKTDHLEP [H19D], which protein stability index is on record?
**A.** 3.81

**Q.** With EQRNSRWNTVLRAVKAKTEHLEP [H19E] as the variant, how does the protein stability index read?
**A.** 3.75

**Q.** Which protein stability index does the source give for EQRNSRWNTVLRAVKAKTFHLEP [H19F] here?
**A.** 3.66

**Q.** With EQRNSRWNTVLRAVKAKTGHLEP [H19G] as the variant, how does the protein stability index read?
**A.** 3.86

**Q.** With EQRNSRWNTVLRAVKAKTIHLEP [H19I] as the variant, how does the protein stability index read?
**A.** 3.44

**Q.** For EQRNSRWNTVLRAVKAKTKHLEP [H19K], which protein stability index is on record?
**A.** 3.57

**Q.** Which protein stability index does the source give for EQRNSRWNTVLRAVKAKTLHLEP [H19L] here?
**A.** 3.43

**Q.** With EQRNSRWNTVLRAVKAKTMHLEP [H19M] as the variant, how does the protein stability index read?
**A.** 3.37

**Q.** For EQRNSRWNTVLRAVKAKTNHLEP [H19N], which protein stability index is on record?
**A.** 3.56

**Q.** For EQRNSRWNTVLRAVKAKTPHLEP [H19P], which protein stability index is on record?
**A.** 2.65

**Q.** With EQRNSRWNTVLRAVKAKTQHLEP [H19Q] as the variant, how does the protein stability index read?
**A.** 3.73

**Q.** With EQRNSRWNTVLRAVKAKTRHLEP [H19R] as the variant, how does the protein stability index read?
**A.** 2.96

**Q.** For EQRNSRWNTVLRAVKAKTTHLEP [H19T], which protein stability index is on record?
**A.** 3.74

**Q.** Which protein stability index does the source give for EQRNSRWNTVLRAVKAKTVHLEP [H19V] here?
**A.** 3.31

**Q.** Which protein stability index does the source give for EQRNSRWNTVLRAVKAKTWHLEP [H19W] here?
**A.** 3.54

**Q.** With EQRNSRWNTVLRAVKAKTYHLEP [H19Y] as the variant, how does the protein stability index read?
**A.** 3.07

**Q.** With EQRNSRWNTVLRAVKAKTHALEP [H20A] as the variant, how does the protein stability index read?
**A.** 2.81

**Q.** For EQRNSRWNTVLRAVKAKTHCLEP [H20C], which protein stability index is on record?
**A.** 2.23

**Q.** For EQRNSRWNTVLRAVKAKTHDLEP [H20D], which protein stability index is on record?
**A.** 3.09

**Q.** With EQRNSRWNTVLRAVKAKTHELEP [H20E] as the variant, how does the protein stability index read?
**A.** 3.19

**Q.** Which protein stability index does the source give for EQRNSRWNTVLRAVKAKTHFLEP [H20F] here?
**A.** 3.22

**Q.** Which protein stability index does the source give for EQRNSRWNTVLRAVKAKTHGLEP [H20G] here?
**A.** 1.9

**Q.** With EQRNSRWNTVLRAVKAKTHILEP [H20I] as the variant, how does the protein stability index read?
**A.** 3.15

**Q.** Which protein stability index does the source give for EQRNSRWNTVLRAVKAKTHKLEP [H20K] here?
**A.** 4.01

**Q.** With EQRNSRWNTVLRAVKAKTHLLEP [H20L] as the variant, how does the protein stability index read?
**A.** 3.6

**Q.** For EQRNSRWNTVLRAVKAKTHNLEP [H20N], which protein stability index is on record?
**A.** 3.47

**Q.** With EQRNSRWNTVLRAVKAKTHPLEP [H20P] as the variant, how does the protein stability index read?
**A.** 3.89

**Q.** Which protein stability index does the source give for EQRNSRWNTVLRAVKAKTHQLEP [H20Q] here?
**A.** 2.89

**Q.** For EQRNSRWNTVLRAVKAKTHSLEP [H20S], which protein stability index is on record?
**A.** 2.66

**Q.** For EQRNSRWNTVLRAVKAKTHTLEP [H20T], which protein stability index is on record?
**A.** 3.27

**Q.** Which protein stability index does the source give for EQRNSRWNTVLRAVKAKTHVLEP [H20V] here?
**A.** 3.46

**Q.** For EQRNSRWNTVLRAVKAKTHWLEP [H20W], which protein stability index is on record?
**A.** 3.46

**Q.** With EQRNSRWNTVLRAVKAKTHYLEP [H20Y] as the variant, how does the protein stability index read?
**A.** 3.25

**Q.** With EQRNSRWNTVLRAVKAKTHHAEP [L21A] as the variant, how does the protein stability index read?
**A.** 4.09

**Q.** For EQRNSRWNTVLRAVKAKTHHDEP [L21D], which protein stability index is on record?
**A.** 4.04

**Q.** Which protein stability index does the source give for EQRNSRWNTVLRAVKAKTHHEEP [L21E] here?
**A.** 4.79

**Q.** For EQRNSRWNTVLRAVKAKTHHFEP [L21F], which protein stability index is on record?
**A.** 3.82

**Q.** Which protein stability index does the source give for EQRNSRWNTVLRAVKAKTHHGEP [L21G] here?
**A.** 3.67

**Q.** With EQRNSRWNTVLRAVKAKTHHHEP [L21H] as the variant, how does the protein stability index read?
**A.** 4.16

**Q.** Which protein stability index does the source give for EQRNSRWNTVLRAVKAKTHHIEP [L21I] here?
**A.** 3.59

**Q.** With EQRNSRWNTVLRAVKAKTHHKEP [L21K] as the variant, how does the protein stability index read?
**A.** 4.92

**Q.** For EQRNSRWNTVLRAVKAKTHHMEP [L21M], which protein stability index is on record?
**A.** 3.01

**Q.** Which protein stability index does the source give for EQRNSRWNTVLRAVKAKTHHNEP [L21N] here?
**A.** 4.59

**Q.** For EQRNSRWNTVLRAVKAKTHHPEP [L21P], which protein stability index is on record?
**A.** 4.27

**Q.** For EQRNSRWNTVLRAVKAKTHHQEP [L21Q], which protein stability index is on record?
**A.** 4.55

**Q.** Which protein stability index does the source give for EQRNSRWNTVLRAVKAKTHHREP [L21R] here?
**A.** 2.08

**Q.** For EQRNSRWNTVLRAVKAKTHHTEP [L21T], which protein stability index is on record?
**A.** 4.26

**Q.** For EQRNSRWNTVLRAVKAKTHHVEP [L21V], which protein stability index is on record?
**A.** 4.29

**Q.** With EQRNSRWNTVLRAVKAKTHHWEP [L21W] as the variant, how does the protein stability index read?
**A.** 4.04

**Q.** With EQRNSRWNTVLRAVKAKTHHYEP [L21Y] as the variant, how does the protein stability index read?
**A.** 3.81

**Q.** Which protein stability index does the source give for EQRNSRWNTVLRAVKAKTHHLAP [E22A] here?
**A.** 2.87

**Q.** With EQRNSRWNTVLRAVKAKTHHLCP [E22C] as the variant, how does the protein stability index read?
**A.** 2.63

**Q.** With EQRNSRWNTVLRAVKAKTHHLDP [E22D] as the variant, how does the protein stability index read?
**A.** 3.21

**Q.** With EQRNSRWNTVLRAVKAKTHHLFP [E22F] as the variant, how does the protein stability index read?
**A.** 3.55

**Q.** Which protein stability index does the source give for EQRNSRWNTVLRAVKAKTHHLGP [E22G] here?
**A.** 3.09

**Q.** With EQRNSRWNTVLRAVKAKTHHLHP [E22H] as the variant, how does the protein stability index read?
**A.** 3.45

**Q.** For EQRNSRWNTVLRAVKAKTHHLIP [E22I], which protein stability index is on record?
**A.** 2.45

**Q.** For EQRNSRWNTVLRAVKAKTHHLKP [E22K], which protein stability index is on record?
**A.** 4.85

**Q.** Which protein stability index does the source give for EQRNSRWNTVLRAVKAKTHHLLP [E22L] here?
**A.** 3.02

**Q.** Which protein stability index does the source give for EQRNSRWNTVLRAVKAKTHHLMP [E22M] here?
**A.** 2.84

**Q.** With EQRNSRWNTVLRAVKAKTHHLNP [E22N] as the variant, how does the protein stability index read?
**A.** 4.48

**Q.** For EQRNSRWNTVLRAVKAKTHHLPP [E22P], which protein stability index is on record?
**A.** 4.21

**Q.** Which protein stability index does the source give for EQRNSRWNTVLRAVKAKTHHLQP [E22Q] here?
**A.** 3.28

**Q.** With EQRNSRWNTVLRAVKAKTHHLRP [E22R] as the variant, how does the protein stability index read?
**A.** 2.26

**Q.** With EQRNSRWNTVLRAVKAKTHHLSP [E22S] as the variant, how does the protein stability index read?
**A.** 3.09

**Q.** For EQRNSRWNTVLRAVKAKTHHLTP [E22T], which protein stability index is on record?
**A.** 3.23

**Q.** With EQRNSRWNTVLRAVKAKTHHLVP [E22V] as the variant, how does the protein stability index read?
**A.** 3.49

**Q.** With EQRNSRWNTVLRAVKAKTHHLWP [E22W] as the variant, how does the protein stability index read?
**A.** 3.6

**Q.** For EQRNSRWNTVLRAVKAKTHHLYP [E22Y], which protein stability index is on record?
**A.** 3.91

**Q.** For EQRNSRWNTVLRAVKAKTHHLEA [P23A], which protein stability index is on record?
**A.** 4.32

**Q.** Which protein stability index does the source give for EQRNSRWNTVLRAVKAKTHHLED [P23D] here?
**A.** 4.92

**Q.** Which protein stability index does the source give for EQRNSRWNTVLRAVKAKTHHLEE [P23E] here?
**A.** 3.95

**Q.** With EQRNSRWNTVLRAVKAKTHHLEF [P23F] as the variant, how does the protein stability index read?
**A.** 4.51

**Q.** With EQRNSRWNTVLRAVKAKTHHLEG [P23G] as the variant, how does the protein stability index read?
**A.** 4.74

**Q.** With EQRNSRWNTVLRAVKAKTHHLEH [P23H] as the variant, how does the protein stability index read?
**A.** 4.88

**Q.** Which protein stability index does the source give for EQRNSRWNTVLRAVKAKTHHLEI [P23I] here?
**A.** 4.19

**Q.** Which protein stability index does the source give for EQRNSRWNTVLRAVKAKTHHLEK [P23K] here?
**A.** 5.17

**Q.** Which protein stability index does the source give for EQRNSRWNTVLRAVKAKTHHLEL [P23L] here?
**A.** 4.39

**Q.** For EQRNSRWNTVLRAVKAKTHHLEM [P23M], which protein stability index is on record?
**A.** 4.09

**Q.** Which protein stability index does the source give for EQRNSRWNTVLRAVKAKTHHLEN [P23N] here?
**A.** 4.98

**Q.** With EQRNSRWNTVLRAVKAKTHHLEQ [P23Q] as the variant, how does the protein stability index read?
**A.** 5.08

**Q.** With EQRNSRWNTVLRAVKAKTHHLER [P23R] as the variant, how does the protein stability index read?
**A.** 3.9

**Q.** For EQRNSRWNTVLRAVKAKTHHLET [P23T], which protein stability index is on record?
**A.** 4.13

**Q.** Which protein stability index does the source give for EQRNSRWNTVLRAVKAKTHHLEV [P23V] here?
**A.** 4.13

**Q.** Which protein stability index does the source give for EQRNSRWNTVLRAVKAKTHHLEY [P23Y] here?
**A.** 4.4

Variants of: B2
Experiment: as above
Conditions: c terminus: a fixed tail appended

**Q.** With ANYSVGFKDLNESLNALEDQDLDA [F1A] as the variant, how does the protein stability index read?
**A.** 5

**Q.** With CNYSVGFKDLNESLNALEDQDLDA [F1C] as the variant, how does the protein stability index read?
**A.** 4.79

**Q.** With DNYSVGFKDLNESLNALEDQDLDA [F1D] as the variant, how does the protein stability index read?
**A.** 5.74

**Q.** For ENYSVGFKDLNESLNALEDQDLDA [F1E], which protein stability index is on record?
**A.** 5.53

**Q.** With GNYSVGFKDLNESLNALEDQDLDA [F1G] as the variant, how does the protein stability index read?
**A.** 4.72

**Q.** With HNYSVGFKDLNESLNALEDQDLDA [F1H] as the variant, how does the protein stability index read?
**A.** 5.05

**Q.** With INYSVGFKDLNESLNALEDQDLDA [F1I] as the variant, how does the protein stability index read?
**A.** 4.43

**Q.** For KNYSVGFKDLNESLNALEDQDLDA [F1K], which protein stability index is on record?
**A.** 4.39
